The target of assay [1] is T1, Recombinant human glypican-3 (aa 1-559), His-tagged, R&D Systems (human, UniProt P51654 25-559).
T1 construct: also called huGPC3; Hu GPC3-His
Description: SPR KD, 37 C, Biacore T100. How it is done:
(§1) For off-rate measurements, single 200 nM adnectin/AdxDC concentrations were injected using identical conditions. One 30s injection of 10 mM glycine pH 1.7 was used to remove bound adnectin and regenerate the GPC3 surfaces between assay cycles.
(§2) Rate constants kₐ (kₒₙ) and kd (koff) were derived from reference-subtracted sensorgrams fit to a 1:1 binding model in Biacore T100 Evaluation Software v2.0.4 (GE Healthcare). The affinity constant, KD was calculated from the ratio of rate constants kd/kₐ.
A general note: Surface plasmon resonance follows binding to a sensor surface in real time, without labels.

Assay [2] addresses T2, Human glypican-3 on cells (Huh7, Hep3B, H446, Hep3B xenograft tissue) (human, UniProt P51654 25-554). Description: cell-based or functional assay.
Assay [3] addresses T2, Human glypican-3 on cells (Huh7, Hep3B, …). As to the kind of experiment: flow cytometry on Hep3B cells, His Tag PE antibody. How it is done: GPC3 AdxDC were evaluated by flow cytometry for binding to human Hep3B hepatocellular carcinoma cells grown in MEM with 10% FBS, and H446 small cell lung carcinoma cells grown in RPMI with 10% FBS. Cells were harvested using Cellstripper, a non-enzymatic cell dissociation solution from Mediatch (Corning: Manassas, VA 20109), Cat. #25-056-CL. Tumor cells (25,000/reaction) were suspended in FACS buffer (PBS+5% FBS+0.01% NaN₃) and mixed with a serial dilution of AdxDC for 1 hour on ice. Cells were washed three times with FACS buffer, and bound AdxDC was detected with His Tag PE-conjugated Antibody from R&D System, cat #IC050P, and read on a flow cytometer.

For assay [4] the target is unchanged. As to the kind of experiment: staining of Hep3B xenograft tissue.
Assay [5] concerns the target T1, Recombinant human glypican-3 (aa …). Description: SPR.
Assay [6] deals with T3, Recombinant murine glypican-3 (aa 25-557), R&D Systems (murine, UniProt Q8CFZ4 25-557).
T3 construct: also called muGPC3; Mu GPC3-His
T3 sequence (Q8CFZ4 25-557 limits assumed, form in doubt): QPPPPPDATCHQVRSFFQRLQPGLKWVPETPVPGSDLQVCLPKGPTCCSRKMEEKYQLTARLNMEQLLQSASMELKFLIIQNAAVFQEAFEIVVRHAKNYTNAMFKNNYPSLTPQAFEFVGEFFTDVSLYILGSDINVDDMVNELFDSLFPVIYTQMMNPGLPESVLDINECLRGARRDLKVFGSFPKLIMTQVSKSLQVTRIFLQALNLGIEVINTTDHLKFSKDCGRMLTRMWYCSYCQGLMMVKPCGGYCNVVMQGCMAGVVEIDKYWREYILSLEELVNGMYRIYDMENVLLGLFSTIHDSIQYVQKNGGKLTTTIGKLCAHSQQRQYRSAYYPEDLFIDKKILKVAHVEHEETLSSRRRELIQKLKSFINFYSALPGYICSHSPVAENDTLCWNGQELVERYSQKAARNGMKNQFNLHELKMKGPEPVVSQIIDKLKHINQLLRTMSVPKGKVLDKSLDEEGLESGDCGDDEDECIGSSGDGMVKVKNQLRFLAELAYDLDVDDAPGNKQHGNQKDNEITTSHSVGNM
As to the kind of experiment: SPR, 37 C. The procedure: as §1, §2

Assay [7] has as its target T1, Recombinant human glypican-3 (aa …). As to the kind of experiment: SPR, 37 C. How it is done:
as §1, §2

For assay [8], the target named is T2, Human glypican-3 on cells (Huh7, Hep3B, …). Description: cell-based or functional assay. The source holds these as a separate data set.
Assay [9] has the same target. As to the kind of experiment: flow cytometry on Huh7 cells, unconjugated protein; Huh7 cells; unconjugated protein. The procedure: The binding of DG variants to huGPC3 in DG GPC3 AdxDCs mutants were evaluated by flow cytometry for binding to Huh7 carcinoma cells grown in DMEM media with 10% FBS. Cells were harvested using Versene, an EDTA cell dissociation solution from Lonza, Cat. #17-711E. Tumor cells (1E5 cells/reaction) were suspended in FACS buffer (PBS, 1% BSA, 0.05% Na Azide) and mixed with a serial dilution of AdxDC for one hour on ice. Cells were washed three times with FACS buffer, and bound AdxDC was detected with an in house anti-scaffold monoclonal Ab and PE-conjugated Antibody from (RnD Systems), cat #NL007, and read on a flow cytometer.
(In general: In flow cytometry, cells or beads pass a laser one at a time.)

We go through four molecules from patent publication US20230312686A1 (Bristol-Myers Squibb, published 2023).

T2 sequence (P51654 25-554 limits assumed): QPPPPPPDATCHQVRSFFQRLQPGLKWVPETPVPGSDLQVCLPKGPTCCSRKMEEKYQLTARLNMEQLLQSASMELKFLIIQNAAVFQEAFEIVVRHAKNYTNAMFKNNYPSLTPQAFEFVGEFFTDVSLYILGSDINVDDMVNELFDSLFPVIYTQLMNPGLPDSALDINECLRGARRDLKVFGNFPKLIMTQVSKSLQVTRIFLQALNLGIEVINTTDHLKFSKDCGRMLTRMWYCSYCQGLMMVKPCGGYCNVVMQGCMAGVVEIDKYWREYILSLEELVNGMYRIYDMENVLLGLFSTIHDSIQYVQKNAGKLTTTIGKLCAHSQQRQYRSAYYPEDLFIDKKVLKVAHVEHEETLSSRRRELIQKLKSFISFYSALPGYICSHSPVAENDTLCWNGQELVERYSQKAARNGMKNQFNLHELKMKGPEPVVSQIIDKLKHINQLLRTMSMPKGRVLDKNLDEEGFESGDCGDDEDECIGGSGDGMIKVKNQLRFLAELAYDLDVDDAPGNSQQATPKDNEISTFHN
T1 sequence (P51654 other isoform, or with tags, fused parts or gaps): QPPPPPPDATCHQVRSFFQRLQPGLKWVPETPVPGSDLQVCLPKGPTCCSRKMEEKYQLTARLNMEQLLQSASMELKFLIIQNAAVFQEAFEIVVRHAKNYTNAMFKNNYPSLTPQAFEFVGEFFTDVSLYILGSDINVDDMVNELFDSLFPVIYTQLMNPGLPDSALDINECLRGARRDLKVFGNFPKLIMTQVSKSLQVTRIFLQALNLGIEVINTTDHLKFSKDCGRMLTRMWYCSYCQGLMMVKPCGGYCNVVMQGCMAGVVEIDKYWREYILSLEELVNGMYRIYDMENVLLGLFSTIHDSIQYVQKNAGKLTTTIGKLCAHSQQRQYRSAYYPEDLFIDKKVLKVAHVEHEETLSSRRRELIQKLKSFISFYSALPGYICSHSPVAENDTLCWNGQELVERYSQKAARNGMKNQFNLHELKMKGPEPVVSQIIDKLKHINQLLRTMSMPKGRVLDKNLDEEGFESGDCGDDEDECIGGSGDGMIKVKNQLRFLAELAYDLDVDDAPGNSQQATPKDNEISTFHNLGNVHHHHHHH

B1: ADX_6093_A01 DAR1 AdxDC (non-binding control) (designed binder)
chain: MGVSDVPRDLEVVAATPTSLLISWDAPAVTVRYYRITYGETGGNSPVQEFTVPGSKSTATISGLKPGVDYTITVYAVTGRGESPASSKPISINYRTPCHHHHHH
modifications: tubulysin analog-linker (formula IV) on the C-terminal cysteine (DAR1)
notes: Control 10Fn3 with RGE in place of RGD; also called RGE AdxDC
Turning to B1, the binding result is reported as “no binding” in assay [1] and “no binding (tested: about 30 nM)” in assay [3]. In [2], the “AdxDC cell-killing IC50” value is above 25 nM.

B2: RGE-FITC (designed binder)
chain: B1 chain
modifications: fluorescein-5-maleimide on the C-terminal cysteine
On to B2, for which the figures for the binding result in assay [4] and in assay [5] were “no binding (tested: 0.2 µg/ml)” and “no binding”, respectively.

B3: GPC3_AdxDC DA variant-DAR1 (designed binder)
chain: GVSDVPRDLEVVAATPTSLLISWSDDYHAHRYYRITYGETGGNSPVQEFTVPGEHVTATISGLKPGVDYTITVYAVTYDAEKAATDWSISINYRTPC
modifications: tubulysin analog-linker conjugated to the C-terminal cysteine (DAR1)
notes: also called DA variant AdxDC DAR1; GPC3_AdxDC (DA) DAR1
Regarding B3, in assay [6], the Kd (as a rule, the free concentration of one partner at which half of the binding sites on the other are occupied at equilibrium, for simple one-to-one binding) turned out to be 23 nM and the off-rate (koff) (usually the rate constant with which the complex falls apart) amounted to 0.00095 s⁻¹. For the same molecule, in assay [7], the equilibrium dissociation constant (Kd) was determined as 25 nM and the dissociation rate constant (koff) was determined as 0.0021 s⁻¹. Also, the “Cell-killing IC50 (Huh7)” value in assay [8] was 0.2 nM.

B4: DA variant of ADX_6077_F02, unconjugated protein (designed binder)
chain: B3 chain
notes: also called DA variant, unconjugated
Take B4: the concentration giving a half-maximal response (EC50) (in general, the concentration at which the effect is half-maximal) in assay [9] was 2.2 nM.
